These results are taken from publication doi:10.1101/2024.07.30.605797.

The target in the assay is C-terminal His6-tagged VanA-type VanS^127-384 (cytoplasmic domain of the histidine kinase VanS) (UniProt Q06240). In words: differential scanning fluorimetry. (In general: DSF heats the sample and reads unfolding from a dye or from intrinsic fluorescence.)

Take siamycin I (peptide): the Kd – broadly, the free concentration of one partner at which half of the binding sites on the other are occupied at equilibrium, for simple one-to-one binding – stood at 38 µM. Take sviceucin (peptide): the Kd stood at 52 µM.
